In publication PMC3326351 (International Journal of Oncology, 2011):

Target: the molecule itself
Test: non-reducing SDS-PAGE and immunoblot

B1: His-tagged MUC1-C cytoplasmic domain (domain or fragment, human, UniProt P15941 1182-1255, looked up)
chain: AVCQCRRKNYGQLDIFPARDTYHPMSEYPTYHTHGRYVPPSSTDRSPYEKVSAGNGGSSLSYTNPAVAATSANL
Question: Does B1 bind?
Answer: binds
